These results are taken from article PMC2213439.

Common to all, as to test: cell adhesion assay
Test [1] has as its target E-cadherin-Fc N27A (human).
The target in test [2] is E-cadherin-Fc D44A (human).
The target of test [3] is E-cadherin-Fc E89A (human).
Test [4] concerns the target E-cadherin-Fc S83A (human) (UniProt P12830).
In test [5] the target is E-cadherin-Fc E31D (human).
Test [6] addresses E-cadherin-Fc K33A (human).
Test [7] has as its target E-cadherin-Fc K25A (human).
Test [8] has as its target E-cadherin-Fc K30A (human).
The target in test [9] is E-cadherin-Fc N86A (human).
Test [10] concerns the target E-cadherin-Fc E31A (human).
The target of test [11] is E-cadherin-Fc K28A (human).
For test [12], the target named is E-cadherin-Fc E56A (human).
Test [13] addresses E-cadherin-Fc KEG30-32RDT (human) (UniProt P12830).
Test [14] has as its target Purified human IgG1 (human).

For “E-cadherin on MCF-7 human breast epithelial cells (from UniProt P12830 155-882) (natural protein)”, the adhesion as percent of wild type (% of wild-type) came to 62 in test [1]; 94 in test [2]; 2 in test [3]; 105 in test [4]; 91 in test [6]; 76 in [7]. In addition, the adhesion as percent of wild type (% of wild-type) was found to be 99 in [8], 93 in test [9], 94 in test [11] and 90 in test [12]. Also, the percent of cells bound in test [5] and in test [10] was 41% each time.
Regarding “Integrin αEβ7 on human IEL-496 T cells (from UniProt P38570 19-1179; P26010 20-798) (complex)”, the adhesion as percent of wild type (% of wild-type) in [1] was above 82; in test [2], above 82; in [3], 20; in test [4] it was above 82; in test [5], below 2; in test [6], above 82. Besides, the adhesion as percent of wild type (% of wild-type) in [7] was above 82; in [13] it was below 2; in [8], above 82; in test [9], above 82; in test [10], below 2; in test [11] it was above 82. For the same substance, the adhesion as percent of wild type (% of wild-type) in test [12] is above 82. Also, the percent of cells bound in [1] came to 58%; in [2] it was 59%; in test [3], 12%; in test [4], 68%; in test [6] it was 60%; in [7], 69%. In addition, the percent of cells bound was determined as 58% in test [8], 57% in [9], 58% in test [11] and 60% in [12].
For “Integrin αEβ7 on K562 transfectants (K562-αEβ7) (from UniProt P38570 19-1179; P26010 20-798) (complex)”, the adhesion as percent of wild type (% of adhesion to wild-type) was 57 in test [1]; 105 in test [2]; 80 in test [4]; 104 in test [6]; 87 in test [7]; 53 in test [8]. Further, the adhesion as percent of wild type (% of adhesion to wild-type) stood at 86 in test [9], 79 in test [11] and 102 in test [12]. For the same substance, the percent of cells bound in test [14] was below 1%.
